± gives the uncertainty stated by the source.
B1: Cullin-9, residues 2234 to 2275; numbered along this chain, Q8IWT3 (parent)
chain: KRCPSCQAPIEKNEGCLHMTCAKCNHGFCWRCLKSWKPNHKD

Variants of: B1
Test: abundance fitness (aPCA) (normalised: wild type 0, dead -1); higher = more abundant; growth selection in yeast, the domain comes from the species named
Settings: Homo sapiens

| Variant | abundance fitness |
| --- | --- |
| KRCPSCQAPIEKNEGCLHMTCDKCNHGFCWRCLKSWKPNHKD | 0.229 ± 0.19 |
| KRCPSCQAPIEKNEGCLHMTCEKCNHGFCWRCLKSWKPNHKD | 0.029 ± 0.11 |
| KRCPSCQAPIEKNEGCLHMTCGKCNHGFCWRCLKSWKPNHKD | -0.254 ± 0.11 |
| KRCPSCQAPIEKNEGCLHMTCIKCNHGFCWRCLKSWKPNHKD | -0.025 ± 0.14 |
| KRCPSCQAPIEKNEGCLHMTCKKCNHGFCWRCLKSWKPNHKD | -0.333 ± 0.17 |
| KRCPSCQAPIEKNEGCLHMTCLKCNHGFCWRCLKSWKPNHKD | -0.282 ± 0.13 |
| KRCPSCQAPIEKNEGCLHMTCMKCNHGFCWRCLKSWKPNHKD | 0.082 ± 0.16 |
| KRCPSCQAPIEKNEGCLHMTCPKCNHGFCWRCLKSWKPNHKD | 0.149 ± 0.13 |
| KRCPSCQAPIEKNEGCLHMTCRKCNHGFCWRCLKSWKPNHKD | -0.242 ± 0.1 |
| KRCPSCQAPIEKNEGCLHMTCSKCNHGFCWRCLKSWKPNHKD | -0.202 ± 0.12 |
| KRCPSCQAPIEKNEGCLHMTCVKCNHGFCWRCLKSWKPNHKD | -0.306 ± 0.12 |
| KRCPSCQAPIEKNEGCLHMTCWKCNHGFCWRCLKSWKPNHKD | -0.096 ± 0.11 |
| KRCPSCQAPIEKNEGCLHMTCYKCNHGFCWRCLKSWKPNHKD | 0.082 ± 0.21 |
| KRCPSCQAPIEKNEGCLHMTCAACNHGFCWRCLKSWKPNHKD | -0.102 ± 0.085 |
| KRCPSCQAPIEKNEGCLHMTCADCNHGFCWRCLKSWKPNHKD | -0.239 ± 0.32 |
| KRCPSCQAPIEKNEGCLHMTCAECNHGFCWRCLKSWKPNHKD | -0.209 ± 0.097 |
| KRCPSCQAPIEKNEGCLHMTCAFCNHGFCWRCLKSWKPNHKD | 0.02 ± 0.22 |
| KRCPSCQAPIEKNEGCLHMTCAGCNHGFCWRCLKSWKPNHKD | -0.262 ± 0.08 |
| KRCPSCQAPIEKNEGCLHMTCAHCNHGFCWRCLKSWKPNHKD | -0.223 ± 0.19 |
| KRCPSCQAPIEKNEGCLHMTCAICNHGFCWRCLKSWKPNHKD | -0.437 ± 0.14 |

| Variant | abundance fitness |
| --- | --- |
| KRCPSCQAPIEKNEGCLHMTCALCNHGFCWRCLKSWKPNHKD | -0.325 ± 0.092 |
| KRCPSCQAPIEKNEGCLHMTCAMCNHGFCWRCLKSWKPNHKD | -0.323 ± 0.14 |
| KRCPSCQAPIEKNEGCLHMTCANCNHGFCWRCLKSWKPNHKD | -0.184 ± 0.23 |
| KRCPSCQAPIEKNEGCLHMTCAPCNHGFCWRCLKSWKPNHKD | -0.695 ± 0.12 |
| KRCPSCQAPIEKNEGCLHMTCAQCNHGFCWRCLKSWKPNHKD | -0.454 ± 0.14 |
| KRCPSCQAPIEKNEGCLHMTCARCNHGFCWRCLKSWKPNHKD | -0.015 ± 0.077 |
| KRCPSCQAPIEKNEGCLHMTCASCNHGFCWRCLKSWKPNHKD | -0.174 ± 0.1 |
| KRCPSCQAPIEKNEGCLHMTCATCNHGFCWRCLKSWKPNHKD | -0.115 ± 0.1 |
| KRCPSCQAPIEKNEGCLHMTCAVCNHGFCWRCLKSWKPNHKD | -0.293 ± 0.091 |
| KRCPSCQAPIEKNEGCLHMTCAKANHGFCWRCLKSWKPNHKD | -0.45 ± 0.094 |
| KRCPSCQAPIEKNEGCLHMTCAKDNHGFCWRCLKSWKPNHKD | -0.045 ± 0.14 |
| KRCPSCQAPIEKNEGCLHMTCAKENHGFCWRCLKSWKPNHKD | -0.129 ± 0.088 |
| KRCPSCQAPIEKNEGCLHMTCAKFNHGFCWRCLKSWKPNHKD | -0.534 ± 0.21 |
| KRCPSCQAPIEKNEGCLHMTCAKGNHGFCWRCLKSWKPNHKD | -0.268 ± 0.074 |
| KRCPSCQAPIEKNEGCLHMTCAKHNHGFCWRCLKSWKPNHKD | -0.382 ± 0.33 |
| KRCPSCQAPIEKNEGCLHMTCAKKNHGFCWRCLKSWKPNHKD | -0.379 ± 0.13 |
| KRCPSCQAPIEKNEGCLHMTCAKLNHGFCWRCLKSWKPNHKD | -0.454 ± 0.093 |
| KRCPSCQAPIEKNEGCLHMTCAKMNHGFCWRCLKSWKPNHKD | -0.574 ± 0.2 |
| KRCPSCQAPIEKNEGCLHMTCAKPNHGFCWRCLKSWKPNHKD | -0.249 ± 0.1 |
| KRCPSCQAPIEKNEGCLHMTCAKRNHGFCWRCLKSWKPNHKD | -0.594 ± 0.086 |

| Variant | abundance fitness |
| --- | --- |
| KRCPSCQAPIEKNEGCLHMTCAKSNHGFCWRCLKSWKPNHKD | -0.384 ± 0.12 |
| KRCPSCQAPIEKNEGCLHMTCAKTNHGFCWRCLKSWKPNHKD | -0.735 ± 0.19 |
| KRCPSCQAPIEKNEGCLHMTCAKWNHGFCWRCLKSWKPNHKD | -0.784 ± 0.11 |
| KRCPSCQAPIEKNEGCLHMTCAKCAHGFCWRCLKSWKPNHKD | -0.127 ± 0.091 |
| KRCPSCQAPIEKNEGCLHMTCAKCCHGFCWRCLKSWKPNHKD | 0.126 ± 0.12 |
| KRCPSCQAPIEKNEGCLHMTCAKCDHGFCWRCLKSWKPNHKD | 0.087 ± 0.12 |
| KRCPSCQAPIEKNEGCLHMTCAKCEHGFCWRCLKSWKPNHKD | -0.045 ± 0.087 |
| KRCPSCQAPIEKNEGCLHMTCAKCFHGFCWRCLKSWKPNHKD | -0.242 ± 0.16 |
| KRCPSCQAPIEKNEGCLHMTCAKCGHGFCWRCLKSWKPNHKD | 0.208 ± 0.077 |
| KRCPSCQAPIEKNEGCLHMTCAKCIHGFCWRCLKSWKPNHKD | -0.121 ± 0.22 |
| KRCPSCQAPIEKNEGCLHMTCAKCKHGFCWRCLKSWKPNHKD | -0.092 ± 0.14 |
| KRCPSCQAPIEKNEGCLHMTCAKCMHGFCWRCLKSWKPNHKD | -0.06 ± 0.14 |
| KRCPSCQAPIEKNEGCLHMTCAKCPHGFCWRCLKSWKPNHKD | -0.382 ± 0.12 |
| KRCPSCQAPIEKNEGCLHMTCAKCQHGFCWRCLKSWKPNHKD | 0.082 ± 0.14 |
| KRCPSCQAPIEKNEGCLHMTCAKCRHGFCWRCLKSWKPNHKD | -0.25 ± 0.081 |
| KRCPSCQAPIEKNEGCLHMTCAKCSHGFCWRCLKSWKPNHKD | 0.03 ± 0.1 |
| KRCPSCQAPIEKNEGCLHMTCAKCTHGFCWRCLKSWKPNHKD | -0.106 ± 0.11 |
| KRCPSCQAPIEKNEGCLHMTCAKCVHGFCWRCLKSWKPNHKD | -0.265 ± 0.088 |
| KRCPSCQAPIEKNEGCLHMTCAKCWHGFCWRCLKSWKPNHKD | -0.44 ± 0.12 |
| KRCPSCQAPIEKNEGCLHMTCAKCNAGFCWRCLKSWKPNHKD | -0.022 ± 0.089 |

Source: the Human Domainome abundance scans (Beltran et al. 2025)
